Test results reported in US20260234247A1 (published 2026).
Residue numbers refer to the chain shown, from its start.

B1: LK-RB1-39 (antibody, human IgG4 S228P, kappa, V domains shown)
VH: EVQLQQSGAELVRPGASVKLSCTASGFNIKDDYVHWVNQRPEQGLEWIGWIDPENGDTGYASKFQDKATITADTSSNTAYLHLSSLTSEDTAVYYCTTTRWTGSYWGQGTTLTVSS
VL: QIVLTQSPAIMSASPGEKVTITCSASSSVNYMHWFQQKPGSSPKLWIYSTANLASGVPARFSGSGSGTSYSLTISRMEAEDAATYYCQQRSSYPPTWTFGGGTKLEIKR
B2: LK-RB2-1 (antibody, human IgG4 S228P, kappa, V domains shown)
VH: QIQLVQSGPELKKPGETVKISCKASGYTFTTYGMSWVKQAPGKGLKWMGWINTYSGVSTYADDFKGRFAFSLETSASTAYLQINNLKNEDTATYFCARRYDYDGYAMDYWGQGTSVTVSS
VL: DIVMSQSPSSLAVSVGEKVTMSCKSSQSLLFSSNQKNYLAWYQQKPGQSPKLLIYWASTRESGVPDRFTGRGSGTDFTLTISSVKTEDLAVYYCQQYDTYPPTFGGGTKLEIKR
B3: LK-RB2-2 (antibody, human IgG4 S228P, kappa, V domains shown)
VH: DVKLEESGEGLVKPGGSLKLSCAASGFTFSSYAMSWVRQTPEKRLEWVAYISSGGDYFHYADTVKGRFTISRDNARNTLYLQMSSLKSEDTAMYYCTREGAHYDSSYLAWFAHWGQGTLVTVSA
VL: DIQMTQSPASLSVSVGETVTITCRASENIYSNLAWYQQRQGKSPQLLVYAATNLADGVPSRFSGSGSGTQYSLKINSLQSEDFGSYYCQQFWDNPLTFGAGTKLELKR
B4: LK-RB2-3 (antibody, human IgG4 S228P, kappa, V domains shown)
VH: QLQLQQSDAELVKPGASVKISCKVSGYSFTDHTIHWMKQRPEQGLEWIGYIYPRDGSTKENEKFTGKATLTADKSSSTAYMQLTSLTSEDSAVYFCTGSGFDYWGQGTSLTVSS
VL: DIKMTQSPSSMYASLGERVTITCKASQDIKSYLSWFQQKPGKSPKTLIYRANRLVDGVPSRFSGSGSGQDYSLTINSLEYEDMEIYYCLQYDEFPYTFGGGTKLEIKR
B5: LK-RB2-4 (antibody, human IgG4 S228P, kappa, V domains shown)
VH: EVQLVESGGDLVKPGGSLKLSCAASGFTFSNYGMSWVRQTPDKRLEWVATISSGGSYTFYPDSVKGRFTISRDNAKNTLYLQMSSLKSEDTALYYCARDYYYGKTIEGYFDYWGQGTTLTVSS
VL: DIQMTQTTSSLSASLGDRVTISCRANQDISNYLNWYQQKPDGTVKLLIYYTSRLHSGVPSRFSGSGSGTDYSLTISDLEQEDIATYFCQQGNTLPWTFGGGTKLEIKR
B6: LK-RB2-6 (antibody, human IgG4 S228P, kappa, V domains shown)
VH: B2 VH with K46E, T53I, S58P, Y100G, G104S, Y105F, A106Y, M107F, S115T, V116L
VL: B2 VL with M21V, F31Y, S33Y, A57S, R71S, T86A, Y97C, D98Y, T99N, P102Y
B7: LK-RB2-7 (antibody, human IgG4 S228P, kappa, V domains shown)
VH: B3 VH with E5V, K43M, Y57H, H59Y, N77S, H102S, S106N, Y107F, H113Y
VL: B3 VL with R39K, Q40E, A50G, Q90N, N94I
B8: LK-RB2-8 (antibody, human IgG4 S228P, kappa, V domains shown)
VH: QIQLVQSGPELKKPGETVKISCKASGYSFASYGMGWVKQAPGKGLKWLGWINTHSGVPTYADDFKGRFAFSLETSASTAYLQINNLKNEDTATYFCAHYGRPWFPYWGQGTLVTVSA
VL: DIQMTQSPASLSASVGETVTITCRTSENIYSYLAWYQQKQGKSPQLLVYNAKSLAEGVPSRFSGSGSGTQFSLRINSLQPEDFGTYYCQQHYETPLTFGAGTKLELKR
B9: LK-RB2-9 (antibody, human IgG4 S228P, kappa, V domains shown)
VH: DVQLQESGPGLVKPSQSLSLTCSVTGYSITSGYYWNWIRQFPGNKLEWMGYIGYDGNNNYNPSLKNRISITRDTSKNQFFLKLNSLTTEDTATYYCAREGSTMVTSWFAYWGQGTLVTVSA
VL: B3 VL with R39K, A50G, S65R, G68D, Q90H, N94T, L96Y, A100G, L106I
B10: LK-RB2-12 (antibody, human IgG4 S228P, kappa, V domains shown)
VH: QIQLVQSGPELKKPGETVKISCKASGYTFTTYGMSWVKQTPGKGLKWMGWINIYSGVPTYADDFKGRFVFSLEISASTAHLQINNLKNEDTATYFCARRKDYSGHCFDYWGQGTTLTVSS
VL: DIVLTQSPASLAVSPGQRATISCRASESVDTYGISFMHWYQQKPGQPPKLLIYRASNLESGIPARFSGSGSRTDFTLTINPVETDDVAIYYCQQSKKDPYTFGGGTKLEIKR
B11: LK-RB2-15 (antibody, human IgG4 S228P, kappa, V domains shown)
VH: B10 VH with T40A, I53V, V69A, H80Y, N88D
VL: B10 VL with P15L, I21F, I89T, D98E
B12: LK-RB2-13 (antibody, human IgG4 S228P, kappa, V domains shown)
VH: B2 VH with K46Q, S58P, Y60F, E73D, Y100I, D101N, Y102W
VL: B2 VL with I2S, F31Y, S33G, N37S, R71S, T86A, D98Y, T99S, P102Y
B13: LK-RB2-17 (antibody, human IgG4 S228P, kappa, V domains shown)
VH: QIQLVQSGPELKKPGETVKISCKASGYTFTNYGMSWVKQAPGKGLQWMGWINTYSGVPTFADDFRGRFAFSLDTSASTAYLQINSLKNEDTAAYFCARRINWDGYAMDYWGQGTSVTVSS
VL: DSVMSQSPSSLAVSVGEKVTLSCKSSQSLLYSGNQKSYLAWYQQKPGQSPKLLIYWASSRESGVPDRFTGSGSGTDFTLTISSVKAEDLAVYYCQQYYSFPYTFGGGTKLEIKR
B14: LK-RB2-14 (antibody, human IgG4 S228P, kappa, V domains shown)
VH: QVQLKQSGPGLVQPSQSLSITCTVSGFSLTSYGVHWVRQSPGKGLEWLGVIWRGGSTDYNAAFMSRLSITKDNSKSQVFFKMNSLQADDTAIYYCAKNEGDSTVVAWYFDVWGTGTTVTVSS
VL: DIQMTQTTSSLSASLGDRVTISCSASQGISNYLNWFQQKPDGTVKLLIYYTSSLHSGVPSRFSGSGSGTDYSLTISNLEPEDIATYYCQQYSKLPLTFGAGTKLELKR
B15: LK-RB2-16 (antibody, human IgG4 S228P, kappa, V domains shown)
VH: B8 VH with S28T, A30T, S31T, G42E, L48M, H54N, V57A, A61G, P105A
VL: B8 VL with T25A, Q37H, K42E, S53T, R74K, T85S, Q90H, E93N, T94I
B16: LK-RB2-18 (antibody, human IgG4 S228P, kappa, V domains shown)
VH: EVQLQQSGPELVKPGTSVKISCKASGYTFTDYYMNWVKQSHGKSLEWIGDINPNNGGTSYNQKFKGKATLTVDKSSSTAYMELRSLTSEDSAVFYCARSGTTVVGTYWYFDVWGTGTTVTVSS
VL: B3 VL with R39K, A50G, Q90H, N94T, L96F, A100S, L106I
B17: LK-RB2-19 (antibody, human IgG4 S228P, kappa, V domains shown)
VH: QVQLQQPGAELVKPGASVKLSCKASGYTFTSYWMHWVKQRPGQGLEWIGMIHPNSGGTNYNEKFKSKATLTVDKSSSTAYMQFSSLTSEDSAVYYCARCTVVALYYALDYWGQGTSVTVSS
VL: QIVLSQSPAILSASPGEKVTMTCRATSRVSYIHWFQQKPGSSPKPWIYVTSNLASGVPARFSGSGSGTSYSLTISKLEAEDVATYYCQQWSTNPLTFGAGTKLELKR
B18: LK-RB2-20 (antibody, human IgG4 S228P, kappa, V domains shown)
VH: QVQLKQPGAERVKPGASVKMSCKASGYTFTRYWITWVKQRPGQGLEWIGDIYPGSATTNYNEKFKSKATLTEDTSSSTAYMQLSSLTSEDSAVYYCARSGDYSNSNYAMDYWGQGTSVTVSS
VL: NIEMTQSPKSMSMAVGERVTLSCKASENVGTYVSWYQQKPEQSPKLLIYGASNRNTGVPDRFTGSGSATDFTLTISSVQAEDLADYHCGQSYSYPFTFGSGTKLEIKR
B19: LK-RB2-21 (antibody, human IgG4 S228P, kappa, V domains shown)
VH: EVQLVESGGDLVKPGGSLKLSCAASGFTFSSYGMSWVRQTPDKRLEWVATISSGGSYTYYPDSLKGRFTISRDNAKSTLYLQMSSLKSEDTAKYYCARPYYDYIFYAIDYWGQGTSVTVSS
VL: DIQMNQSPSSLSASLGDTITITCHASQNINVWLSWYQQKPGNIPKLLIYKASNLHTGVPSRFSGSGSGTGFTLTISSLQPEDIATYYCQQGQSYPLTFGGGTKLEIKR
B20: LK-RB2-22 (antibody, human IgG4 S228P, kappa, V domains shown)
VH: B2 VH with P14T, T53I, S58P, Y100A, A106Y, M107F, S115T, V116L
VL: NIVMTQTPKFLLVSAGDRVTITCRASQSVTNDVAWYQQRPGQSLKLLIYYASNRYTGVPDRFTGSGYGTDFTFTISTVQAEDLAVYFCQQGYSSPFTFGSGTKLEIKR
B21: LK-RB2-23 (antibody, human IgG4 S228P, kappa, V domains shown)
VH: B2 VH with T53I, S58P, Y100G, A106Y, M107F, S115T, V116L
VL: NIVLIQSAATLSVTPGDSVSLSCRASQSLSNGLHWYQQKSHESPRLLIKYGSQSISGIPSRFSGSGSGTDFTLSINSVETEDFGMYFCQQSDSWPHTFGSGTKLEIKR
B22: LK-RB2-33 (antibody, human IgG4 S228P, kappa, V domains shown)
VH: EVQLQQSGVELVRPGALVKLSCKASGFNIKDYYMHWVKQRPEQGLEWIGWIDPEKGDTIYGPKFQGKASITADTSSNTAYLQLSSLTSEDTAVYYCSRGPNYGSSYAFAYWGQGTLVTVSA
VL: DVVMTQSHKFMSTSVGDRVTITCKASQDVSNAVAWYQQKPGQSPKLLIYSASYRYTGVPDRFTGSGSGTDFTFTISSMQAEDLAVYYCQQHYSLPWTFGGGTKLEIKR
B23: LK-RB2-35 (antibody, human IgG4 S228P, kappa, V domains shown)
VH: EVQLQQSGPELVKPGASVKISCKASGYTFTDYNMHWVKQSHGKSLEWIGSIYPYNGGSDYNQKFKSKATLTVDNSSSTAYMELRSLTSEDSAVYYCASELTGLYAMDYWGQGTSVTVSS
VL: DIVMTQSPATLSVTPGDRVSLSCRASQSISDYLHWYQQKSHESPRLLIKYASQSISGIPSRFSGSGSGSDFTLSINSVEPEDVGVYYCQTGHSFPYTFGGGTKLEIKR
B24: LK-RB2-45 (antibody, human IgG4 S228P, kappa, V domains shown)
VH: B10 VH with K46Q, I53V, V69A, I74A, H80Y, T93S, K100G, S103D, C106Y
VL: B23 VL with H34N, A51V, V83I, T90N, S93N, Y96L, I106L

target: T1, human LILRB2 (human, UniProt Q8N423 22-460, limits assumed); assay: Octet off-rate ranking;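 also: antibody dissociation rate constants against cynomolgus LILRB2 plus human LILRB1, LILRB2, LILRA1 and LILRA2, measured on an Octet instrument to rank binding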
T1 construct: also called hLILRB2
T1 sequence (Q8N423 22-460 limits assumed): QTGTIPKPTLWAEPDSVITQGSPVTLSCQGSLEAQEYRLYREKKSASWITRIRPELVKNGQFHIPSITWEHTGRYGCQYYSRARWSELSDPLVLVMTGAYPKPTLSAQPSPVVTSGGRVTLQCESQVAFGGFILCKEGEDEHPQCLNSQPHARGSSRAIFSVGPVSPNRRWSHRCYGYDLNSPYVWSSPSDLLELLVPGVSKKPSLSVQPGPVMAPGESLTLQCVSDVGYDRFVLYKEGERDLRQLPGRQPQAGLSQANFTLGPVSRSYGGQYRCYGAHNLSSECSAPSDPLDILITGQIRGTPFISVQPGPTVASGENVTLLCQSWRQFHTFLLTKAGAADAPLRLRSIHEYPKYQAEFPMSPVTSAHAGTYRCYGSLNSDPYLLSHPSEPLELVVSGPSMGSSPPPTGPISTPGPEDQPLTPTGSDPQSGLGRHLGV
From the text: (§1) Binding affinity of anti-LILRB1 and anti-LILRB2 antibodies against human LILRB1, LILRB2, LILRA1, LILRA2 and cynomolgus LILRB2 was ranked by measuring dissociation rate constant (Kdis) using the Octet system.

Binder | koff [s⁻¹]
B1 | 0.00153
B2 | 0.00341
B3 | 0.000757
B4 | 3.91e-05
B5 | 0.000157
B6 | 0.00167
B7 | 0.0014
B8 | 1e-07
B9 | 0.00135
B10 | 0.000662
B11 | 6.22e-05
B12 | 0.00304
B13 | 0.000926
B14 | 0.000302
B15 | 5.5e-05
B16 | 0.000174
B17 | 0.002
B18 | 0.000895
B19 | 0.000966
B20 | 0.00126
B21 | 0.000876
B22 | 0.00139
B23 | 0.0012
B24 | 8.84e-05

target: T2, human LILRB1 (human, UniProt Q8NHL6 24-458, limits assumed); assay: Octet off-rate ranking;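 also: antibody dissociation rate constants against cynomolgus LILRB2 plus human LILRB1, LILRB2, LILRA1 and LILRA2, measured on an Octet instrument to rank binding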
T2 construct: also called hLILRB1
T2 sequence (Q8NHL6 24-458 limits assumed): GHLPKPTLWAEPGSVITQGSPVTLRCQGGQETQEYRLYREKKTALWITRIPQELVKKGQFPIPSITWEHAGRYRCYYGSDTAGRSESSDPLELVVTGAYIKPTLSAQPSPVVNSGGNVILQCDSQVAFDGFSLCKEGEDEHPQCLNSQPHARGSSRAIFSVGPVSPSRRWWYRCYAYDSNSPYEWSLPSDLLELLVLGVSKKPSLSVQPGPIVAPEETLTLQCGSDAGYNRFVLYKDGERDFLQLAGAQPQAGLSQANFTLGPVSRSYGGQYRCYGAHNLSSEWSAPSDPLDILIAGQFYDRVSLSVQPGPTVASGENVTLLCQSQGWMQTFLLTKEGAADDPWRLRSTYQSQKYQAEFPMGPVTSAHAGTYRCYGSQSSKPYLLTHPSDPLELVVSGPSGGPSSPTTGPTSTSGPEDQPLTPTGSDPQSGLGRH
From the text: as §1

Binder | koff [s⁻¹]
B1 | 4.64e-05
B8 | 4.85e-05
B15 | 0.000238
